Where only a bound is given, the exact number is not on record here.

This is an account of results in the Immune Epitope Database (IEDB).

The target of experiment [1] is HLA-A*26:01. The experiment can be described thus: IEDB peptide-MHC binding, purified MHC/competitive/fluorescence; filed as Kd, often an IC50 or EC50 that approximates it; ≥ and ≤ were set here for values at or beyond the usual limits of such assays. The note with it: source organism: Human immunodeficiency virus 1.
For experiment [2], the target named is HLA-A*02:01. The experiment is described as above. The settings on record: source organism: Human immunodeficiency virus 1.
A further experiment deals with HLA-B*07:02. Described as above.
Another experiment concerns the target HLA-A*30:01. Described as above.
Another experiment addresses HLA-A*26:02. The experiment is described as above. The note with it: source organism: Human immunodeficiency virus 1.
The target of experiment [3] is HLA-A*02:06. The description is as above. The settings on record: source organism: Human immunodeficiency virus 1.
The target of a further experiment is HLA-A*02:03. The experiment is described as above. The note with it: source organism: Human immunodeficiency virus 1.
Another experiment addresses HLA-B*08:02. Described as above. The note with it: source organism: Human immunodeficiency virus 1.
Another experiment addresses HLA-A*68:02. Described as above. The settings on record: source organism: Human immunodeficiency virus 1.
Another experiment has as its target HLA-B*15:09. The description is as above. The note with it: source organism: Human immunodeficiency virus 1.
The target in the next experiment is HLA-B*58:01. The description is as above. The settings on record: source organism: Vibrio parahaemolyticus AQ3810.
The target in another experiment is HLA-A*11:01. The experiment is described as above. The settings on record: source organism: Vibrio parahaemolyticus AQ3810.
For the next experiment, the target named is HLA-B*08:01. The experiment is described as above. The note with it: source organism: Vibrio parahaemolyticus AQ3810.
Another experiment deals with HLA-B*14:02. The description is as above. The settings on record: source organism: Vibrio parahaemolyticus AQ3810.
Another experiment has as its target HLA-A*30:02. Described as above. The settings on record: source organism: Vibrio parahaemolyticus AQ3810.
A further experiment addresses HLA-B*53:01. The description is as above. The settings on record: source organism: Vibrio parahaemolyticus AQ3810.
The target of a further experiment is HLA-B*40:01. Described as above. The note with it: source organism: Vibrio parahaemolyticus AQ3810.
A further experiment deals with HLA-A*01:01. The experiment is described as above. The note with it: source organism: Vibrio parahaemolyticus AQ3810.
A further experiment addresses HLA-B*44:02. The experiment is described as above. The note with it: source organism: Vibrio parahaemolyticus AQ3810.
Another experiment has as its target HLA-A*66:01. The description is as above. The note with it: source organism: Vibrio parahaemolyticus AQ3810.
In the next experiment the target is HLA-B*27:05. Described as above. The note with it: source organism: Vibrio parahaemolyticus AQ3810.
The target in another experiment is HLA-A*03:01. Nature of the experiment: IEDB peptide-MHC binding, purified MHC/direct/fluorescence; filed as Kd, often an IC50 or EC50 that approximates it; ≥ and ≤ were set here for values at or beyond the usual limits of such assays. The note with it: source organism: Vibrio parahaemolyticus AQ3810.
The next experiment addresses HLA-A*24:03. Described as above. The note with it: source organism: Vibrio parahaemolyticus AQ3810.
In the next experiment the target is HLA-A*69:01. The experiment is described as above. The note with it: source organism: Vibrio parahaemolyticus AQ3810.
The target of experiment [4] is HLA-A*26:01. Described as above. The note with it: source organism: Vibrio parahaemolyticus AQ3810.
For experiment [5], the target named is HLA-A*02:01. The description is as above. The settings on record: source organism: Vibrio parahaemolyticus AQ3810.
The target in the next experiment is HLA-B*46:01. Described as above. The settings on record: source organism: Vibrio parahaemolyticus AQ3810.
For another experiment, the target named is HLA-B*57:01. The description is as above. The settings on record: source organism: Vibrio parahaemolyticus AQ3810.
For the next experiment, the target named is HLA-B*18:01. The description is as above. The note with it: source organism: Vibrio parahaemolyticus AQ3810.
The next experiment has as its target HLA-A*02:19. Described as above. The note with it: source organism: Vibrio parahaemolyticus AQ3810.
For experiment [6], the target named is HLA-A*02:06. The experiment is described as above. The note with it: source organism: Vibrio parahaemolyticus AQ3810.
Experiment [7] has as its target HLA-B*15:01. The description is as above. The note with it: source organism: Vibrio parahaemolyticus AQ3810.
The next experiment deals with HLA-B*27:03. The description is as above. The note with it: source organism: Vibrio parahaemolyticus AQ3810.
A further experiment addresses HLA-B*51:01. The experiment is described as above. The note with it: source organism: Vibrio parahaemolyticus AQ3810.
Another experiment addresses HLA-A*23:01. The experiment is described as above. The settings on record: source organism: Vibrio parahaemolyticus AQ3810.
For another experiment, the target named is HLA-B*15:17. The experiment is described as above. The note with it: source organism: Vibrio parahaemolyticus AQ3810.
The next experiment deals with HLA-A*29:02. Described as above. The note with it: source organism: Vibrio parahaemolyticus AQ3810.
A further experiment deals with HLA-B*39:01. The experiment can be described thus: IEDB peptide-MHC binding, purified MHC/competitive/fluorescence; filed as Kd, often an IC50 or EC50 that approximates it; ≥ and ≤ were set here for values at or beyond the usual limits of such assays. The note with it: source organism: Human immunodeficiency virus 1.
Another experiment addresses HLA-B*08:03. Described as above. The note with it: source organism: Human immunodeficiency virus 1.
The target in experiment [8] is HLA-B*15:01. The description is as above. The note with it: source organism: Human immunodeficiency virus 1.
Setting [9] is: source organism: Human immunodeficiency virus 1.
[10] abbreviates: source organism: Vibrio parahaemolyticus AQ3810.

In the case of EVKSLFNTV, the Kd with HLA-A*26:01 [1] is not below 20 µM; in the experiment with HLA-A*02:01 [2], not below 20 µM; with HLA-B*07:02 (setting [9]), not below 20 µM; in the experiment with HLA-A*30:01 (setting [9]), not below 20 µM; with HLA-A*26:02, 0.199 µM; in the experiment with HLA-A*02:06 [3], 0.0849 µM. Moreover, the equilibrium dissociation constant (Kd) in the experiment with HLA-A*02:03 was not below 20 µM; with HLA-B*08:02, not below 20 µM; with HLA-A*68:02 it was 0.0004 µM; with HLA-B*15:09, not below 20 µM.
For HQFTSNPEV, the Kd in the experiment with HLA-B*07:02 (setting [10]), in the experiment with HLA-A*30:01 (setting [10]), with HLA-B*58:01, with HLA-A*11:01, with HLA-B*08:01 and with HLA-B*14:02 was not below 5 µM each time. Further, the Kd in the experiment with HLA-A*30:02 was not below 5 µM; with HLA-B*53:01, not below 5 µM; with HLA-B*40:01, 0.416 µM; with HLA-A*01:01 it was not below 5 µM; with HLA-B*44:02 it was not below 5 µM; with HLA-A*66:01, not below 5 µM. Also, the Kd is not below 5 µM with HLA-B*27:05; not below 20 µM with HLA-A*03:01; not below 20 µM in the experiment with HLA-A*24:03; not below 20 µM in the experiment with HLA-A*69:01; not below 20 µM with HLA-A*26:01 [4]; 0.004 µM with HLA-A*02:01 [5]. Further, the Kd is not below 20 µM with HLA-B*46:01; not below 20 µM with HLA-B*57:01; not below 20 µM with HLA-B*18:01; not below 20 µM with HLA-A*02:19; 0.008 µM with HLA-A*02:06 [6]; not below 20 µM with HLA-B*15:01 [7]. Moreover, the Kd with HLA-B*27:03, in the experiment with HLA-B*51:01, with HLA-A*23:01, with HLA-B*15:17 and in the experiment with HLA-A*29:02 was not below 20 µM each time.
As for EIKDTEEAL, the Kd is not below 20 µM with HLA-B*39:01; not below 20 µM with HLA-B*08:03; not below 20 µM with HLA-A*02:01 [2]; not below 20 µM with HLA-A*26:02; not below 20 µM with HLA-B*15:01 [8]; 0.183 µM with HLA-A*68:02.

By Kd is commonly meant the concentration at which binding is half-saturated.
